Target: T1, RoxP_HypProt_pET-22b
T1 construct: also called RoxP_6
T1 single chain: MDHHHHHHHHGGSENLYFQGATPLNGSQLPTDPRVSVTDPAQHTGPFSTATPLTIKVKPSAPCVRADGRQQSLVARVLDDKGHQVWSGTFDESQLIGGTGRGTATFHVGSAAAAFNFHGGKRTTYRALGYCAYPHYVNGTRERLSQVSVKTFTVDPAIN
Test: indirect ELISA on recombinant RoxP orthologs, absorbance normalized (%)

B1: 2H2F3 (antibody, V domains shown)
VH: QVQLQQSGAELVRPGVSVKISCKGSGYTFTDYAMHWVKQSHAKSLEWIGIISTYYGNASYNQKFKGKATMTVDKSSSTAYMELARLTSEDSAIYYCARVPYYGSSYAMDYWGQGTSVTVSS
VL: DVLMTQTPLSLPVSLGDQASISCRSSQNIVHSDGNTYLEWYLQKPGQSPKLLIYKVSNRFSGVPDRFSGSGSGTDFTLKISRVEAEDLGVYYCFQGSHVPWTFGGGTKLEIK
notes: also called IgG-2H2F3-1; 2H2F3-1
binding result: no binding (tested: 330 ng/ml)
